Experiment [1] concerns the target FLC (UniProt Q9S7Q7). Description: yeast two-hybrid. Conditions: p>0.05 (open symbol); parent: 1; read off a plot.
Experiment [2] deals with SOC1 (UniProt O64645). Description: yeast two-hybrid. Conditions: p>0.05 (open symbol); parent: 1; read off a plot.
The target of the next experiment is …3 (Arabidopsis) (UniProt O22456). The experiment in a line: two-hybrid; pGADT7 AD and pGBKT7 BD vectors co-transformed into yeast Y187; quantitative β-galactosidase assay with ONPG (Miller units).
…3 (Arabidopsis), sequence (O22456 whole entry): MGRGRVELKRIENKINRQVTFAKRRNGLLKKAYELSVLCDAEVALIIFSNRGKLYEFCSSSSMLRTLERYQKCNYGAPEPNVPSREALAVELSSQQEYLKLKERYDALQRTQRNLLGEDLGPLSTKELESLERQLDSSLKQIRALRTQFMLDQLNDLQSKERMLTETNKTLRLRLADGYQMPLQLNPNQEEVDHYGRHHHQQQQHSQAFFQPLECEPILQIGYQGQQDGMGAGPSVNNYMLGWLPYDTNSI
The target in experiment [3] is SOC1 (UniProt O64645). The experiment is described as above.
Experiment [4] concerns the target FLC (UniProt Q9S7Q7). The description is as above.
In another experiment the target is FLC, SEP3 and SOC1. The description is as above.

FLC, sequence (Q9S7Q7 whole entry): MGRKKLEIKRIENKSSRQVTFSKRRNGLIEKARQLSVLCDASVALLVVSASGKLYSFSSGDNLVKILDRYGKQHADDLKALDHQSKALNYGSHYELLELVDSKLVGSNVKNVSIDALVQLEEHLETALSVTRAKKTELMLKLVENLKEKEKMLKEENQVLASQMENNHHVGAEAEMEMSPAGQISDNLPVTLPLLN
SOC1, sequence (O64645 whole entry): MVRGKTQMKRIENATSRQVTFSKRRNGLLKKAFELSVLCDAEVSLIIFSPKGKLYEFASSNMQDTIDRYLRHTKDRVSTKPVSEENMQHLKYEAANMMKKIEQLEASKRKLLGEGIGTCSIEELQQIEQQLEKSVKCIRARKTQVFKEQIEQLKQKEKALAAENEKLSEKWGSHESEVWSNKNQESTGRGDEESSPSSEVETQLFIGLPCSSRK

Consider “SHORT … PHASE (from UniProt Q9FVC1) ins220Y-221D”, for which the ratio to parent with FLC [1] is 1.1. SHORT … PHASE, Q9FVC1 ins80M: in the experiment with SOC1 [2], the ratio to parent came out at 0.94.

As to “SVP C-domain insertion 220–221 YD (from UniProt Q9FVC1 1-240) (natural protein)”, the percent decrease of binding against wild-type SVP with …3 (Arabidopsis) stood at 22%; with SOC1 [3], 28%. As to “SVP Del89V (from UniProt Q9FVC1 1-240) (natural protein)”, the percent increase of interaction strength against wild-type SVP with …3 (Arabidopsis) turned out to be 6%. The percent decrease of binding against wild-type SVP with FLC [4] was 44%; in the experiment with SOC1 [3], 86%. The substance “SVP Q127R (from UniProt Q9FVC1 1-240) (natural protein)” returned a percent decrease of binding against wild-type SVP with …3 (Arabidopsis) of 73%. Besides, the percent increase of binding against wild-type SVP with FLC [4] and in the experiment with SOC1 [3] was 40% each time. As to “SVP ins80M (from UniProt Q9FVC1 1-240) (natural protein)”, the percent decrease of binding against wild-type SVP with …3 (Arabidopsis) and with FLC [4] was 64% each time. For “SVP with the unique C-domain insertion 176–196 deleted (from UniProt Q9FVC1 1-240) (natural protein)”, the percent decrease of binding against wild-type SVP with FLC, SEP3 and SOC1 lay within 84 to 95%.

Source of the values: paper PMC5364480.
